Measurements as given in US20140147453.
Substitutions are numbered along the chain they refer to.

T1: MFK25 peptide (mdhFas-1-GPLGIAG-QERGDSLA) (UniProt P82198)
T1 sequence: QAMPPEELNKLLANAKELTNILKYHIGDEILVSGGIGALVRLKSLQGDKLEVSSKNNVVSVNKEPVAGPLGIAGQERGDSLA

T2: MFK24 peptide (mdhFas-1-GPQGIAG-QERGDSLA) (UniProt P82198)
T2 sequence: T1 sequence with L70Q

T3: MFK23 peptide (mdhFas-1-GPLGVRG-QERGDSLA) (UniProt P82198)
T3 sequence: T1 sequence with I72V, A73R

T4: MFK24 peptide (mdhFas-1-GPQGIAG-QERGDSLA), P82198
T4 chain: T1 sequence with L70Q

B1: cathepsin K (enzyme, UniProt P43235 115-329, looked up, species assumed)
Cathepsin K: APDSVDYRKKGYVTPVKNQGQCGSCWAFSSVGALEGQLKKKTGKLLNLSPQNLVDCVSENDGCGGGYMTNAFQYVQKNRGIDSEDAYPYVGQEESCMYNPTGKAAKCRGYREIPEGNEKALKRAVARVGPVSVAIDASLTSFQFYSKGVYYDESCNSDNLNHAVLAVGYGIQKGNKHWIIKNSWGENWGNKGYILMARNKNNACGIANLASFPKM
B2: MMP-1 secreted from a human Synovial membrane cell (human FLS stimulated with IL-1β) (protein)
chain: FPATLETQEQDVDLVQKYLEKYYNLKNDGRQVEKRRNSGPVVEKLKQMQEFFGLKVTGKPDAETLKVMKQPRCGVPDVAQFVLTEGNPRWEQTHLTYRIENYTPDLPRADVDHAIEKAFQLWSNVTPLTFTKVSEGQADIMISFVRGDHRDNSPFDGPGGNLAHAFQPGPGIGGDAHFDEDERWTNNFREYNLHRVAAHELGHSLGLSHSTDIGALMYPSYTFSGDVQLAQDDIDGIQAIYGRSQNPVQPIGPQTPKACDSKLTFDAITTIRGEVMFFKDRFYMRTNPFYPEVELNFISVFWPQLPNGLEAAYEFADRDEVRFFKGNKYWAVQGQNVLHGYPKDIYSSFGFPRTVKHIDAALSEENTGKTYFFVANKYWRYDEYKRSMDPGYPKMIAHDFPGIGHKVDAVFMKDGFFYFFHGTRQYKFDPKTKRILTLQKANSWFNCRKN

Legend:
[1] = biological target: T1, MFK25 peptide (mdhFas-1-GPLGIAG-QERGDSLA)
[2] = biological target: T2, MFK24 peptide (mdhFas-1-GPQGIAG-QERGDSLA)
[3] = biological target: T3, MFK23 peptide (mdhFas-1-GPLGVRG-QERGDSLA)
[4] = biological target: T4, MFK24 peptide …

Molecule | enzymatic digestion test (immunoblot with anti-Histidine or anti-Bigh3) [1] | enzymatic digestion test (immunoblot with anti-Histidine or anti-Bigh3) [2] | enzymatic digestion test (immunoblot with anti-Histidine or anti-Bigh3) [3] | culture analysis of enzymatic digestion (human FLS + IL-1β, 1 uM peptide, 3 and 6 hours; immunoblot anti-histidine versus anti-βig-h3) [4]
MMP-1 (matrix metalloproteinase 1) | MFK25 was concentration-dependently cleaved through treatment with MMP-1, MMP-2 and MMP-3, and especially, well cleaved by MMP-1 and MMP-3 | MFK24 was concentration-dependently cleaved through treatment with MMP-1 | – | –
cathepsin D | MFK25 was not cleaved through treatment with cathepsin K, L or D | – | MFK23 was not cleaved through treatment with cathepsin K, L or D | –
MMP-2 (matrix metalloproteinase 2) | MFK25 was concentration-dependently cleaved through treatment with MMP-1, MMP-2 and MMP-3 | – | MFK23 was concentration-dependently cleaved through treatment with MMP-2 | –
MMP-3 (matrix metalloproteinase 3) | MFK25 was concentration-dependently cleaved through treatment with MMP-1, MMP-2 and MMP-3, and especially, well cleaved by MMP-1 and MMP-3 | – | – | –
cathepsin L | MFK25 was not cleaved through treatment with cathepsin K, L or D | – | MFK23 was not cleaved through treatment with cathepsin K, L or D | –
B1 | MFK25 was not cleaved through treatment with cathepsin K, L or D | – | MFK23 was not cleaved through treatment with cathepsin K, L or D | –
B2 | – | – | – | in the use of the anti-histidine antibody, MFK24 was measured in a smaller amount than that in the use of the anti-βig-h3 antibody
